Reference: PMC3989220
Like-named read-outs stand apart in the source and are kept apart here.

Key:
[1] = molecular target: GKRP (Rattus norvegicus) (UniProt Q07071); conditions: cited from earlier work
[2] = molecular target: Glucokinase (GK) cloned from rat hypothalamic tanycyte cultures, recombinant (rat) (UniProt P17712)
[3] = molecular target: Glucokinase (GK) cloned from rat hypothalamic tanycyte cultures, recombinant (rat) (UniProt P17712); experiment: enzyme inhibition kinetics (glucose-6-phosphate dehydrogenase-coupled GK activity assay, Segel plot); GK saturation curves with glucose in the presence of 0.1 and 0.2 µM purified GKRP; 200 mM Tris-HCl pH 7.5, 2 mM MgCl2, 1 mM DTT, 1 mM ATP, 0.5 mM NADP+, 37°C, 5 min; Ki from Segel's graph for an allosteric modulator of a cooperative enzyme
[4] = molecular target: Glucokinase (GK) cloned from rat hypothalamic tanycyte cultures, recombinant (rat) (UniProt P17712); experiment: as above; remark: listed apart in the source

Chain of UniProt Q07071 (Q07071 whole entry): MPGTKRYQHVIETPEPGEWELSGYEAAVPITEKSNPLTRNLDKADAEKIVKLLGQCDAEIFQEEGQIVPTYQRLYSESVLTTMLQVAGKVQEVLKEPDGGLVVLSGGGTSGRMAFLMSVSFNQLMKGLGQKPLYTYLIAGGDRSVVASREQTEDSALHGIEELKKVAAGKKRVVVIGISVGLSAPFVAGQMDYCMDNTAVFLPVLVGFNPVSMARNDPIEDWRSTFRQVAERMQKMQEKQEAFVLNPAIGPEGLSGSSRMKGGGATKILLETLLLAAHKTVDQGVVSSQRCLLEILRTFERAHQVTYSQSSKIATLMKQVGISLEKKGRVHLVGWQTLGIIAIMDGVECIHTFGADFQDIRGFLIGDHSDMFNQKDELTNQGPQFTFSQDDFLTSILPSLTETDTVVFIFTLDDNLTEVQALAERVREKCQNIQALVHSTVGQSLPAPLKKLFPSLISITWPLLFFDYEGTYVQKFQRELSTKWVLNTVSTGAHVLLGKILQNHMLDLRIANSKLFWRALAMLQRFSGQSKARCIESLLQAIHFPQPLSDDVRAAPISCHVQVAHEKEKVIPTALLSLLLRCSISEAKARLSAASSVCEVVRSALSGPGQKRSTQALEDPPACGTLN

| Substance | Ki [1] | GK activity (glucose-6-phosphate dehydrogenase-coupled assay) at 5 min with 10 mM glucose and 0.05-0.25 µM GKRP; IC50 by nonlinear extrapolation [2] | Ki [3] | Ki [4] |
| --- | --- | --- | --- | --- |
| Glucokinase (from UniProt P17712) | 1 µM | – | – | – |
| Glucokinase regulatory protein (GKRP) cloned from rat hypothalamic tanycyte cultures, recombinant (from UniProt Q07071 1-627) (natural protein) | – | 280 µM | 210 µM | 0.21 µM |
